Here are results for 19 sequences from the DeepSol protein solubility set.

This data set can be described thus: soluble on expression in E. coli; label from the status in PepcDB or PDB records.
Take “MALETPTPGPPREGQSPASQAGTQHPPAQATAHSQSSPEFKGSLASLSDSLGVSVMATDQDSYSTSSTEEELEQFSSPSVKKKPSMILGKARHRLSFASFSSMFHAFLSNNRKLYKKVVELAQDKGSYFGSLVQDYKVYSLEMMARQTSSTEMLQEIRTMMTQLKSYLLQSTELKALVDPALHSEEELEAIVESALYKCVLKPLKEAINSCLHQIHSKDGSLQQLKENQLVILATTTTDLGVTTSVPEVPMMEKILQKFTSMHKAYSPEKKISILLKTCKLIYDSMALGNPGKPYGADDFLPVLMYVLARSNLTEMLLNVEYMMELMDPALQLGEGSYYLTTTYGALEHIKSYDKITVTRQLSVEVQDSIHRWERRRTLNKARASRSSVQDFICVSYLEPEQQARTLASRADTQAQALCAQCAEKFAVERPQAHRLFVLVDGRCFQLADDALPHCIKGYLLRSEPKRDFHFVYRPLDGGGGGGGSPPCLVVREPNFL”: the “soluble on expression in E. coli” value is given as “soluble”.
Under “MALFGKKSSDSSKSVAVPKAFTIQIDPSKFNLATKPSGPVHEQLETLKQKLTKLSSNVENNLMLVIRASTKKDKALASSAFEFDERYIQKGKFEVEYLTLAYLNFQQLDEADRKTVAHARMILKELERIAQFCLNIADKTEYIQLANIQVLHKDEYDLKLMGDDTAEMIKKAVEAFVSGNSKHATETLDMMKKIDDLYQKAVAKLKAEVNDSNIINSTGILSVVEHVHTCAEISCAIARHFC” stands “soluble”.
Under “MALHTVLIILSLLPMLEAQNPEHANFTIGEPITNETLSWLSDKWFFMGAAFRKLEYRQAIQTMQSEFFYLTTNLINDTIELRESQTIGDQCVYNSTHLGFQRENGTFSKYEGGVETFAHLIVLRKHGAFMLAFDLKDEKKRGLSLYAKRPDITPELQEVFQKAVTHVGMDESEIIFVDWKKDRCGQQEKKQLELGKETKKDPEEGQA” stands “soluble”.
Under “MALNNVSLSSGDQRSRVAYRSSHGDLRPRASALAMVSGDGFLVSRPEAIHLGPRQAVRPSVRAESRRVDGGGRSPREPDGRGRSRQARFSPYPIPAVEPDLLRSVLQQRLIALGGVIAARISV” stands “soluble”; under “MALPGNYAPEVLLPQIAEINARIYADVNNGVYKAGFATRQSVYEKAVMVLFRCMDELEQLLSRQRYLIGNCITEADWRIFTTLIRFDPVYHGHFKCNLRRLVDYPNLWAYTRELYQWPGVAETVNMQHIKEHYYRSHPTINLEHHHHHH”, “not soluble”.
On to “MALPLPDPSEQAYSDTLKTMLHERIAHSGGWISFADYMETVLYTPETGYYSGGAAKFGTAGDFVTAPEISPLFGQALARQIAPILSAVNQGSILEFGAGSGKLAVDLLCALEELNNLPQHYYILDLSADLQQRQRAMIEQHIPHLASRVSWLSALPEQFEGLILANEVLDAMPVHLVAWQNGNIAERGVIWKDQGPVWQDQPLAAGELLDVARQLPPADQFSYPLYISEISLTNRHFICSLAMLLQRGAILLVDYGFGQNEYYHPQRHQGTLMCHYRHHAHDDPFFLPGLQDITSHVDFSTIARTALDSGLQLAGYTTQAHFLINCGITDLLARTPADQPGSYLPLVSQVQRLVSPAEMGELFKVMVLSRDIDIDAASCGFTRGDLRRLLLEHHHHHH”, for which the “soluble on expression in E. coli” value is given as “not soluble”.
For “MALRSVCRWHNGEPAVLSSYGLRVRLSRMEDQCRVLAAAVETLDDVFYVYDADGKLAYWNARLNELFGLTDGELSGMDPTEFFVADDRAAVEAAIEDVFESGQTSVEARAETTEGVVTFELSGRLLTGDDGTVQGFSGVGRDIT”, the “soluble on expression in E. coli” value is “not soluble”.
Under “MALSLYEKMLHKGMIIKNSNVYEKIKEIDTIIFDKTGTLTYGTPIVTQFIGDSLSLAYAASVEALSSHPIAKAIVKYAKEQGVKILEVKDFKEISGIGVRGKISDKIIEVKKAENNNDIAVYINGEPIASFNISDVPRPNLKDYLEKLKNEGLKIIILSGDKEDKVKELSKELNIQEYYSNLSPEDKVRIIEKLKQNGNKVLMIGDGVNDAAALALADVSVAMGNGVDISKNVADIILVSNDIGTLLGLIKNRKRLSNAIPSN” stands “soluble”; under “MALSTLNREVIKKNLQNEEYDVVIIGGGITGAGIALDASQRGMKVALVEMQDFAQGTSSRSTKLVHGGLRYLKQAQIKVVAETGKERAIVYENGPHVTTPEWMLLPMHKGGTFGKFTTNLGLTAYDRLAGVKKYERKKMLSKKQTLNKEPLVKKDGLKGGGYYVEYRTDDARLTIEVMKRAEENGAEILNHTKSTDFIYDSKSKVRGIEVQDLLTGEMYEINAKKVINAAGPWVDEVRKKDYTRNNKQLRLTKGVHVVIDQSKFPLRQAVYFDTEKDGRMIFAIPREGKAYVGTTDTFYDNDKTKPLTTQEDRDYLIDAINYMFPDVNVKDEDIESTWAGVRPLILEDGKDPSEISRKDEIWEGKSGLLTIAGGKLTGYRHMALEIVDLLAKRLKQEYKLTFAECKTKHTPISGGDVGGSANFESFVERKVEEGKAIGLQADVAKRLASKYGSNVDKLYNIAQIAQDKDLKLPLELYVELVYSVQNEMVFKPTDFLIRRSGKLYFNINEVKQYKDAVVEELAKLLNYTQSQQNEFTKEINIAIEEATRGNEQLAVLKLEHHHHHH”, “soluble”.
Under “MALTLAKNQTISLEKTAGTGLKKVSMGLGWDPEKASGFFGKLLGGGGGDIDLDASCIMLDADKKPLDLVWFRQLQSRDGAILHSGDNRTGEGAGDDETISVDLEKLPATVKYLVFTVNSFTGQNFEKVANAYCRIVDLGTRNELGRFDLSEKGQHTGVVMSYLSRTPSGWDFTAVGQATNGRTADDLVELAIGAVRA” stands “not soluble”; under “MAMSKVKSITRESWILSTFPEWGSWLNEEIEQEQVAPGTFAMWWLGCTGIWLKSEGGTNVCVDFWCGTGKQSHGNPLMKQGHQMQRMAGVKKLQPNLRTTPFVLDPFAIRQIDAVLATHDHNDHIDVNVAAAVMQNCADDVPFIGPKTCVDLWIGWGVPKERCIVVKPGDVVKVKDIEIHALDAFDRTALITLPADQKAAGVLPDGMDDRAVNYLFKTPGGSLYHSGDSHYSNYYAKHGNEHQIDVALGSYGENPRGITDKMTSADMLRMGEALNAKVVIPFHHDIWSNFQADPQEIRVLWEIKKDRLKYGFKPFIWQVGGKFTWPLDKDNFEYHYPRGFDDCFTIEPDLPFKSFL”, “not soluble”; under “MAMTKNTRFSPEVRQRAVRMVLESQGEYDSQWATICSIAPKIGCTPETLRVWGLRQHERDTGGGDGGLTTAERQRLKEPERENRELRRSNDILRQASAYFAKAEFDRLWKKLEHHHHHH”, “soluble”.
On to “MAMTLVRRDARPMELTPFRTWSPFTLVDEVNRLFEEAFSDLVRPAAAYVAPADLYETDEALILEMAVPGMTPEDLEVSLEGNKLTIRGQVKPVADERVRRYYLQEMAHGSFVRTFTLPVEVDASGVKAEFRNGILRLTLPKVAEARARRIPIEVVQ”, for which the “soluble on expression in E. coli” value is “soluble”.
Under “MANCENNPWKKNAWGKNEETAEEPIVSFADVLSEEFIEDLSVQEKLEEERYMKQLDQMFGDTSVSDDQLPINTEGMTDEEVALALQRHFDREADVARAVGSSSSVHFTPDRYHPKTMQETDSENEDDDALRQAATDMLYAKLDEENATNSRLRPEGPSTSRTKHDTGVSGRRNADKTFNDRNTLPTGDMVGDKLNNKVFNKLMAFGKSESKRQMRNKDKEEKATMDTSVDSDTRLLLLKWINQGVFDSVDGIIATGKESAVLHAAQDSATSYAIKVYKTTLSEFKNRSEYVKDDFRFKNPRGVLKIWAEREFMNLSRMAKHGLPCPQPVKVRRNVLVMSFLGDQGLAAPRLKNVEWEFFTDDERRNVYDQVQSIMCRMYKECLLVHADLSEFNLLLTPDNKVHVIDVSQAMDLSHPRSLQFLTRDIQNIITFFTRIGTPNLPTYVQLFNLITDLDMVEDHDLLVQVEQFSEENRSVDLRHDKSRPADMELKKYNEEKKANRGISPAREYN” stands “not soluble”; under “MANHARVVRGGEMASAQWLQALAAGVEPEVRMNPVLVKPFGERGAQVVVWGKVDPFLSGLPWKERRPHLEAPVREALEGLLAEYDLLVLEGAGSPVERNLWPDLPNLRVAEWADAKALLVADVDQGGALGALYGTWALLGEHRKRLIGFAFNKFRGDLELLKPAYALLRDWTGLPVLGTLPLLPLALPEEDGFRYRQPAGNGPKVALLRYPHAANLDEFWPLSELAQVVYAHSPEEAEGAWLLILPGSRLPARDLPWLRAFLPLIQRHLEAGKPVLAVCGGAEMLSEALLDEEGVEERGHFPGLGLLPYRVRMAREKTVERRRVRLRGLSGYWGRLEGLEVEGYEIHHGQGLPLFHQEGSLLATWLHGLLENPGVQKALFGREARGLEEGLEALADALERHLDLRALHRALGLTGRAFPASPTEAKAPVGCPDPPPPPGLVLLLGGAKSGKSRFAQRLAGPFATLVATAEARDEEMAEKIRRHQEERPPTWETLEAPLDLVGALKRARHPTVVVDCLTLWVANLMERGLDPLLEARRFLSAVEESGKRVIAVSNEVGMGIVPQNPLARRYRDLLGQVNALLAEAAQEAYLLVAGRALPLGGGKVPAQEAKRPGSHGGEPGPGRSRDPGP”, “soluble”.
Regarding “MANLGMTGVADGNNSEQTYLGQINYQDQTITKASAKKLNREIDLQRASQLTLWAMPMVGMYQSYNSTIALFDLQEGDAPIIGLHEGYDGVYPFLTANVTTPYTISLVDLSETGPYVVNIPAGSIFGVANNAWQEPIKEIGSGNKETLLFVGPGQEYPKDFDGEVIQSDTNQILYFYRVLGVGAEAEKLKTAVTAYKLSDVANPPQVKFVIYKPKASDADVTIATQPRGMAYWEVVNQYIQNEPMADRDRFFYAWLKDLGIEKGKAFNPTPYQKEILLEGVNTGMAMAQSLAFNKTKKKFSSSLYGSDSGWEGVLAGMDPKIDLDTYSMINERTAYTYEAVTTSAGMIVENPGHGSAYIGSYYDADGNALMGGKNYTLHIEPNPPAANFWSITVYDIKNRLIIRNEIKRSDLSSRSESLVMNSDGSVDLYFGPEAPEGKEGNWIQSNDGESYFMYLRLYGPEQEYFDQTYPMNKIDKTKLEHHHHHH”, the “soluble on expression in E. coli” value is “not soluble”.
Under “MANPKLPGISESEQALLYAKLNEYNRGRASFKEAGVYLVVLPRPGKPNYSLWLYSPLPEKQSILYIHDLSPDINESLRIASTMFYYSRRCLILMDYNEKRMQSNGDDLIFFGKYRGHFLHEILKVDPAYLSWIAYKFTPKIPKQERFVKIAQAYHSVHLDVMLRKSKEVRRKSRYLGEVNEKLTDLKLKVMRVRLEDDPYKTRVYGTTPQFFVKQILTLNDASGNLVTMSIPSKTPSTVSCTLSGIEHEYRPGEIIYVASARVSRLFESYGSKYTRLSNVKLAIVNAWSSRL” stands “not soluble”; under “MANQHANHSINDFKQFVKKHPKLIKEVRKEQRSWQDVYENWVLFGESDPIWDPYREPEEASEAVPETPQKNDFVSKMVTAVKKMDVNQMNEQINKMSQSISSLQSLLNTFSGSGQKHSQPGSGQHPFSFRKDLEHHHHHH”, “soluble”.
Consider “MANRKYFGTDGVRGKVGAYPITPDFALKLGWAAGKVLASQGSKMVLIGKDTRISGYMLESALEAGLAAAGLSAAFTGPMPTPAIAYLTRTFRAEAGIVISASHNPYYDNGIKFFSAKGTKLPDEIEEAIEAMLEQPMDCVESAELGKASRINDAAGRYIEFCKGTFPAHLGLEGYKIVVDCANGATYHIAPNVLRELGAEVIEIGTDPNGLNINEKCGATDVTALQAKVVETKADVGLAYDGDGDRIMMVDHLGNKVDGDQILFIIAREALRSGQLKGGVVGTLMSNMSLEIALKMLGVPFLRANVGDRYVLEKMVENDWTLGGENSGHIIIADKNTTGDGIVASLAVLAAMAQHKLSLNELASAVKLFPQVLINVRFAGGENPLESDAVKSVAAEVEKRLEGKGRILLRKSGTEPLIRVMVECQDAELAQQCAEEIAEAVKKIN”, for which the “soluble on expression in E. coli” value is “not soluble”.
